According to patent publication US6872537:

B1: co-expressed baculovirus p60/p80 katanin heterodimer (both subunits with N-terminal His(6) tag) (protein)
chain 1: HHHHHHMSVDEICENTKMGREYALLGNYETSLVYYQGVLQQIQKLLTSVHEPQRKHQWQTIRQELSQEYEHVKNITKTLNGFKSEPAAPEPAPNHGRAAPFSHHQHAAKPAAAEPARDPDVWPPPTPVDHRPSPPYQRAARKDPPRRSEPSKPANRAPGNDRGGRGPSDRRGDARSGGGGRGGARGSDKDKNRGGKSDKDKKAPSGEEGDEKKFDPAGYDKDLVENLERDIVQRNPNVHWADIAGLTEAKRLLEEAVVLPLWMPDYFKGIRRPWKGVLMVGPPGTGKTMLAKAVATECGTTFFNVSSASLTSKYHGESEKLVRLLFEMARFYAPSTIFIDEIDSICSKRGTGSEHEASRRVKSELLIQMDGVSGPSAGEESSKMVMVLAATNFPWDIDEALRRRLEKRIYIPLPEIDGREQLLRINLKEVPLADDIDLKSIAEKMDGYSGADITNVCRDASMMAMRRRIQGLRPEEIRHIPKEELNQPSTPADFLLALQKVSKSVGKEDLVKYMAWMEEFGSV
chain 2: HHHHHHMATKRAWKLQELVAHSSNVNCLALGPMSGRVMVTGGEDKKVNLWAVGKQNCIISLSGHTSPVDSVKFNSSEELVVAGSQSGTMKIYDLEPAKIVRTLTGHRNSIRCMDFHPFGEFVASGSTDTNVKLWDVRRKGCIYTYKGHSDQVNMIKFSPDGKWLVTASEDTTIKLWDLTMGKLFQEFKNHTGGVTGIEFHPNEFLLASGSSDRTVQFWDLETFQLVSSTSPGASAVRSISFHPDGSYLFCSSQDMLHAFGWEPIRCFDTFSVFWGKVADTVIASTQLIGASFNATNVSVYVADLSRMSTTGIAQEPQSQPSKTPSGGAEEVPSKPLTASGRKNFVRERPHTTSSKQRQPDVKSEPERQSPTQDEGVKDDDATDIKDPDSYAKIFSPKTRVDHSPERNAQPFPAPLDVPGAQEPEPFKHPPKPAAAAAVAPVSRAPAPSASDWQPAQANPAPNRVPAATKPVPAQEVAPSRKPDPISTIIPSDRNKPANLDMDAFLPPAHAQQAPRVNAPASRKQSDSERIEGLRKGHDSMCQVLSSRHRNLDVVRAIWTAGDAKTSVESVVNMKDQAILVDILNIMLLKKSLWNLDMCVVVLPRLKELLSSKYENYVHTSCACLKLILKNFTSLFNQNIKCPPSGIDITREERYNKCSKCYSYLIATRGYVEEKQHVSGKLGSSFRELHLLLDQLE
B2: baculovirus-expressed S. purpuratus katanin p60 subunit with N-terminal His(6) tag (protein)
chain: HHHHHHMSVDEICENTKMGREYALLGNYETSLVYYQGVLQQIQKLLTSVHEPQRKHQWQTIRQELSQEYEHVKNITKTLNGFKSEPAAPEPAPNHGRAAPFSHHQHAAKPAAAEPARDPDVWPPPTPVDHRPSPPYQRAARKDPPRRSEPSKPANRAPGNDRGGRGPSDRRGDARSGGGGRGGARGSDKDKNRGGKSDKDKKAPSGEEGDEKKFDPAGYDKDLVENLERDIVQRNPNVHWADIAGLTEAKRLLEEAVVLPLWMPDYFKGIRRPWKGVLMVGPPGTGKTMLAKAVATECGTTFFNVSSASLTSKYHGESEKLVRLLFEMARFYAPSTIFIDEIDSICSKRGTGSEHEASRRVKSELLIQMDGVSGPSAGEESSKMVMVLAATNFPWDIDEALRRRLEKRIYIPLPEIDGREQLLRINLKEVPLADDIDLKSIAEKMDGYSGADITNVCRDASMMAMRRRIQGLRPEEIRHIPKEELNQPSTPADFLLALQKVSKSVGKEDLVKYMAWMEEFGSV

Target: microtubules prepared from bovine brain tubulin

| Protein | ATPase activity (malachite green), stimulation by microtubules | maximal microtubule-stimulated ATPase rate | microtubule concentration at peak ATPase stimulation | microtubule severing, fluorescence microscopy assay |
| --- | --- | --- | --- | --- |
| B1 | this activity was stimulated ˜10-fold by microtubules | maximal microtubule-stimulated rate of 3 ATP/katanin/sec | peak at ˜2 µM tubulin | Both p60 and p60/p80 severed microtubules in this assay |
| B2 | p60 alone displayed a microtubule-stimulated ATPase activity | – | peak at ˜2 µM tubulin | Both p60 and p60/p80 severed microtubules in this assay |
